Where two headings read alike, the source gives them in different places.
Assays:
[1] = molecular target: T1, purified human complement component C8 (human, UniProt P07357)
[2] = molecular target: T2, purified human complement component C9 (human, UniProt P02748)
[3] = molecular target: T1, purified human complement component C8; assay: cell-based or functional assay
[4] = molecular target: T2, purified human complement component C9; assay: cell-based or functional assay

Molecule	percent dye release (Calcein AM) after complement attack, Balb/3T3 cells [1] [fold]	percent dye release (Calcein AM) after complement attack, Balb/3T3 cells [2] [fold]	percent dye release (Calcein AM) after complement attack, Balb/3T3 cells [3] [fold]	percent dye release (Calcein AM) after complement attack, Balb/3T3 cells [4] [fold]
CD59-MCP TMTCIP (transmembrane form of CD59)	3	3	–	–
native human CD59, GPI-anchored (other, glycosyl-phosphatidylinositol (GPI) anchor at the carboxyl terminus) LQCYNCPNPTADCKTAVNCSSDFDACLITKAGLQVYNKCWKFEHCNFNDVTTRLRENELTYYCCKKDLCNFNEQLENGGTSLSEKTVLLLVTPFLAAAWSLHP	–	–	~3	~3
